In US8722052B2, “Vaccinia virus protein A46 peptide and use thereof” (priority 2008, dated 2014):
Entries after “also recorded” stand apart in the source; their conditions may differ.

Assays:
TLR2 = molecular target: T1, TLR2 (Homo sapiens, UniProt O60603); experiment: Pam3CysK4-induced TNFα in THP-1 cells, ELISA; assay type: cell-based; conditions: peptide 1, 5 or 10 μM
T1 construct: endogenous in cells; host or cells: PMA-differentiated THP-1
Procedure: FIGS. 9A and B are bar charts showing the effect of A464 on Pam3CysK4-induced TNFα in human THP-1 cells. Cells were seeded in 96 well plates (3×10^5 cells/ml) and differentiated with 200 nM PMA for 24 hours before treatment. A464 (SEQ ID NO. 20) was added to the cells at a concentration of 1, 5 or 10 μM 1 hour before stimulating with either 100 ng/ml (A) or 10 ng/ml Pam3CysK4 (B). Supernatants were collected 24 hours after stimulation and assayed for TNFα by ELISA. Cells from (B) were also assayed for viability by the MTT assay (C). No peptides were added to the control wells (black bars). Data is representative of at least three experiments each performed in triplicate and is expressed as mean±s.d;
Cytokine and chemokine production from cells or mouse serum was measured by ELISA using Duoset kits from R&D systems, according to the manufacturer's instructions.
In order to determine whether A464 (SEQ ID No. 20) was specific for TLR4, other TLR pathways were next assayed for sensitivity to A464 (SEQ ID No. 20). A scrambled version of A464 (SEQ ID No. 20) peptide was designed to use as a further control peptide, and this had the sequence: […] (ConA464, SEQ ID No. 32). The A464R (SEQ ID No. 20) and ConA464 (SEQ ID No. 32) peptides were assayed for inhibition of TLR2 signalling in THP-1 cells. […]

TLR3 = molecular target: T2, TLR3 (Homo sapiens, UniProt O15455); experiment: poly(I:C)-induced NFκB / ISRE luciferase reporter assay in HEK293_TLR3 cells; assay type: cell-based; conditions: peptide 2, 5 or 10 μM, 25 μg/ml poly(I:C), 6 h
T2 construct: expressed in transfected cells
Procedure: FIGS. 11A and B are bar charts showing the effect of A464 and scrambled A464 (ConA464) on poly(I:C)-induced TLR3 signalling in HEK293 cells. HEK293_TLR3 cells were seeded in 96 well plates (1.5×10^5 cells/ml) 24 hours before transfection with the plasmid DNA. Cells were transfected with 60 ng of either ISRE-Luciferase (A) or NFκB-Luciferase (B) and 20 ng of TK-Renilla reporter gene plasmids. The total volume of plasmid DNA transfected into the cells was made up to 230 ng by adding pcDNA.
Scrambled A464 (ConA464) (SEQ ID NO. 32) and A464 (SEQ ID NO. 20) peptides were added to the cells at a concentration of 2, 5 or 10 μM the next day and cells were stimulated with 25 μg/ml poly(I:C) 1 hour after treatment with the peptide. Cells were harvested and reporter gene assays performed 6 hr after stimulation with the agonist. No peptides were added to the control wells (black bars). Data is representative of at least three experiments each performed in triplicate. Data are expressed as mean fold induction±s.d. relative to control levels;
FIGS. 20A and B are bar charts showing the effect of shortened A464 peptides with deletions of N- and C-terminal amino acids on TLR4- and TLR3-induced NFκB activation in HEK293 cells. HEK293_TLR4 (A) and HEK293_TLR3 (B) cells were seeded in 96 well plates (1.5×10^5 cells/ml) 24 hours before transfection with the plasmid DNA. Cells were transfected with 60 ng NFκB-Luciferase and 20 ng of TK-Renilla reporter genes, as in FIG. 11. A464N-2 (SEQ ID NO. 41) and A464C-3 (SEQ ID NO. 42) peptides were added to the cells at a concentration of 1, 5 or 25 μM the next day and cells were stimulated with either 10 ng/ml LPS (A) or 25 μg/ml Poly(I:C) (B) 1 hour after treatment with peptides. Cells were harvested and assayed for NFκB activation by reporter gene assay 6 hours after stimulation with the agonists. No peptides were added to the control wells (black bars). Data is representative of three experiments each performed in triplicate and is expressed as mean fold induction±s.d. relative to control levels;
HEK293 cells were transfected using GeneJuice® a proprietary non-toxic transfection reagent. 200 μl/well cells at a density of 1×10^5 cells/ml were seeded the day before transfection. 0.8 μl of GeneJuice was mixed with 9.2 μl of serum-free DMEM (SFM) per transfection and incubated for 5 min at room temperature before adding the appropriate amount of the plasmid DNA. The GeneJuice/SFM/DNA mixture was then incubated at room temperature for 15 min before adding to the cells. 10 μl per well of the GeneJuice/SMF/DNA mixture was added to the cells in triplicate and the cells were allowed to recover for 18-20 hours before stimulation. […]

T1 sequence (O60603 21-784): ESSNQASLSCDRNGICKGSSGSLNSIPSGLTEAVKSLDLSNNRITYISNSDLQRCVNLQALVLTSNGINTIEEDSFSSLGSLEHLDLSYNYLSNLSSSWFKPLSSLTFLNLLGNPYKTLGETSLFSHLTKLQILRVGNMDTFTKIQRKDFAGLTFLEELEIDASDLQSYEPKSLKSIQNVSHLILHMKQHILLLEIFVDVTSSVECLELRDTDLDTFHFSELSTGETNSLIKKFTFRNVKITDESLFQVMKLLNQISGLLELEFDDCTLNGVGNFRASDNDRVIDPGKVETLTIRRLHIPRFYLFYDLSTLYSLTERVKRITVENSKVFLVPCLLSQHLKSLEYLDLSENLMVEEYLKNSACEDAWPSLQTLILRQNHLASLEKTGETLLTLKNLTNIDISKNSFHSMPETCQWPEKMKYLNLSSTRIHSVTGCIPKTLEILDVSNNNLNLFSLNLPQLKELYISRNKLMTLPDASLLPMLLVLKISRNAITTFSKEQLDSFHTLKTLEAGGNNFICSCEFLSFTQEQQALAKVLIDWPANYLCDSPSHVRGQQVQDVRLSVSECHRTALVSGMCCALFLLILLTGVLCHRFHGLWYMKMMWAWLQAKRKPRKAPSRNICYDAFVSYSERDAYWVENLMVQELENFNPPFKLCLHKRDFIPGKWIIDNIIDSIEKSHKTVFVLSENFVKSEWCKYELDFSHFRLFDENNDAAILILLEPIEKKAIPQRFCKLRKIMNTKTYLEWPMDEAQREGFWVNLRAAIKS
T1 sequence (Q15399 25-786 partner): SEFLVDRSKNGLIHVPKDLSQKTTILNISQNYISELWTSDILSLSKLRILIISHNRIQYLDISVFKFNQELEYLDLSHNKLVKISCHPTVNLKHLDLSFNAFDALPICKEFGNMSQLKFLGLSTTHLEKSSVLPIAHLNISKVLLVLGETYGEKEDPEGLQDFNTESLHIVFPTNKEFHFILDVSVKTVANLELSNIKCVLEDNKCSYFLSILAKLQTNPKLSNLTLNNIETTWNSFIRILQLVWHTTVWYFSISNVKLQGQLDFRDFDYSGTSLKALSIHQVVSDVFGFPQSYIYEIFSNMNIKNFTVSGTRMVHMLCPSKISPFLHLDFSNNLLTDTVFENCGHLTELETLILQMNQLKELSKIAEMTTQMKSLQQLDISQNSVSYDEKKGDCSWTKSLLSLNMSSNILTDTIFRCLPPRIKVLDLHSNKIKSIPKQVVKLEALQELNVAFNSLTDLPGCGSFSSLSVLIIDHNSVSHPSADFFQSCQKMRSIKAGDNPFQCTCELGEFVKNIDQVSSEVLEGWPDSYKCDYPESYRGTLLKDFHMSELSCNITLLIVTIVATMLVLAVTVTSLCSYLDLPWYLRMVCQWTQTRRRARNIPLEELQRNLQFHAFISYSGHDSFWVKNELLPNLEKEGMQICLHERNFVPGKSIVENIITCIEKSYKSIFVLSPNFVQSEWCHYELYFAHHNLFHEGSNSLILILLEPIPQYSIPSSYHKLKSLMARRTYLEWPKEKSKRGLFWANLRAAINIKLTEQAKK

## KYSFKLILAEYRRRRRRRRR [Peptide A464]
TLR2; 10 ng/ml Pam3CysK4, 24 h
  inhibition of Pam3CysK4-induced hTNFα secretion: slightly heightened
TLR2; 100 ng/ml Pam3CysK4, 24 h
  inhibition of Pam3CysK4-induced hTNFα secretion: only very minor inhibitory effects
TLR3
  inhibition of TLR3-mediated ISRE induction: slightly enhanced; also recorded: insensitive to inhibition
  inhibition of TLR3-mediated NFκB activation: insensitive to inhibition; also recorded: slightly enhanced
